The source of these data is publication PMC9428403.

Several values for one entry are separate records, joined by “and”; a condition that tells them apart may be missing. Equal values may be shown once.

Assay [1] deals with PKM2 (endogenous, RAW264.7 macrophages) (mouse (endogenous in RAW264.7)) (UniProt P52480). Put plainly: cross-linking; RAW264.7 cells pre-treated 1 h with Shikonin (0.5, 1, 2 μM) or not, challenged with LPS (250 ng/ml) + IFN-γ (100 ng/ml) for 24 h; cells cross-linked with disuccinimidyl suberate (500 nM as printed) 30 min at room temperature, quenched with Tris-HCl pH 7.5; lysates analysed by western blot for PKM2.

Assay [2] concerns the target mouse PKM2 (AA 1-531), recombinant (mouse) (UniProt P52480). Put plainly: SEC; Superdex 200 increase 10/300 GL, 150 mM NaCl, 20 mM Tris-HCl; purified PKM2 incubated with or without Shikonin; dimer and tetramer mixture eluted at 13 ml. A general note: SEC sorts molecules by how far they enter the pores of the column.

Chain of PKM2 (endogenous, RAW264.7 macrophages), P52480 1-531 (enzyme; other documents disagree on this pair) (P52480 whole entry): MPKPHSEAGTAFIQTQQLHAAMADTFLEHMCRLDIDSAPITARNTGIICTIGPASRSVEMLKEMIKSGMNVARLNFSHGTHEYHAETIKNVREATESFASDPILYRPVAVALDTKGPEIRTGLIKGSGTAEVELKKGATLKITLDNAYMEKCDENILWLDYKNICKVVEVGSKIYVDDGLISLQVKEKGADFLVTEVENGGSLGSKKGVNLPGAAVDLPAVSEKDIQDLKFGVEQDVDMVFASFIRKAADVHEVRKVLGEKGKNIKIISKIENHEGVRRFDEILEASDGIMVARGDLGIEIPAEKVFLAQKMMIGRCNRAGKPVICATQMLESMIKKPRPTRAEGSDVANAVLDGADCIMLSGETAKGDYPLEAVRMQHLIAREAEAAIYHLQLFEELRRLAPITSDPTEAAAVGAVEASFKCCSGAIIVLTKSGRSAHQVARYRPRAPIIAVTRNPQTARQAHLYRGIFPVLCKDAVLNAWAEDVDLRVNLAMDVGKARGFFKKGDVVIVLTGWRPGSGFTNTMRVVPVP
Chain of mouse PKM2 (AA 1-531), recombinant, P52480 1-531 (enzyme; other documents disagree on this pair) (P52480 whole entry, the tested form may be a part): as the sequence (P52480 whole entry) above

On to “PKM2 (endogenous, RAW264.7 macrophages), P52480 1-531 (enzyme; other documents disagree on this pair)”, for which, in assay [1], the stoichiometry N (in general, a count of units in the complex or per binding partner) is 4 and 2. With “mouse PKM2 (AA 1-531), recombinant, P52480 1-531 (enzyme; other documents disagree on this pair)”, the stoichiometry N in assay [2] is 2 and 4.
